Laboratory results from patent US11510990B2, “Conjugates of fusion proteins of GLP-1 and FGF21” (BEIJING QL BIOPHARMACEUTICAL CO., LTD., priority 2020, dated 2022).

Experiments:
[1] = Pharmacokinetic measurement in C57BL/6 mice, single subcutaneous dose, plasma ELISA; type: in vivo; settings: for AUClast / Cmax / Terminal t1/2 / Tmax: single subcutaneous dose 30 nmol/kg, plasma
Method: Each fusion protein conjugate was injected subcutaneously into C57BL/6 mice (n=3/group) once and plasma samples were collected at designed timepoints and analyzed by ELISA method. Plasma concentrations are indicated as mean values and standard error (SEM).
6-8 week old male C57BL/6 mice were administrated in a single subcutaneous dose of 30 nmol/kg of the exemplary fusion protein conjugates (Compounds 4, 9, 10, 19, 63) or the non-acylated fusion protein (i.e., Compound 3, which has the amino acid sequence identical to Compound 2 but without any conjugation) (n=3/group). Plasma samples were collected pre-dose (−5 min), 0.5 hr, 1 hr, 2 hr, 4 hr, 6 hr, 8 hr, 12 hr and 24 hr hours after the injection. For Compound 3, plasma collection timepoints were −5 min, 0.25 h, 0.5 h, 1 h, 2 h, 4 h and 6 h. The concentrations of the fusion protein conjugates or the non-acylated fusion protein in the plasma were measured by an ELISA assay which has immunoreactivities towards both C-terminal FGF21 and intact N-terminal of GLP-1. Based on the graph showing plasma concentration of each protein versus time after subcutaneous injection, the pharmacokinetic parameters were calculated by WinNonlin.
Pharmacokinetic data were analyzed by WinNonlin software. Tmax, Cmax, T1/2, AUC and MRT were calculated for each molecule.

[2] = Body weight reduction in C57BL/6 mice, daily subcutaneous dosing; type: in vivo; settings: male C57BL/6 mice, 30 nmol/kg subcutaneously everyday, Day 11
Method: FIGS. 1A-1F show in vivo activities of fusion protein conjugates. […] Body weight was measured daily. […] Compared to Vehicle control: ***, p<0.001. All data are expressed as mean values and standard error (SEM).
10 week old male C57BL/6 mice were injected everyday subcutaneously with 30 nmol/kg exemplary fusion protein conjugates for 10 or 14 days (n=5). Body weight was daily monitored for each individual animal. Day 1 and Day 10 (or Day 14) are first day and last day of molecule dosage. % BW loss=100*(BW on Day n-BW on Day 1)/(BW on Day 1). Data are indicated as mean values and standard error (SEM) or pooled values. Statistical analysis was performed by One-way ANOVA. Body weight reduction on Day 11 in Table 5 is calculated by −1*(% BW loss−% BW loss of vehicle group).

[3] = Efficacy study in DIO mice: body weight, fasting glucose, insulin, triglycerides; type: in vivo, DIO male C57BL/6 mice
Method: FIGS. 4A-4F show in vivo efficacy in DIO mice. To evaluate effects of the compounds on the body weight, blood glucose, plasma insulin and plasma triglyceride in vivo, 17-week old DIO mice (C57BL/6 mice on high fat diet for 13 weeks) were dosed everyday subcutaneously with different concentrations of compounds for 21 days. […] Data are expressed as mean values and standard error (SEM). n=5 for each treatment group.
17 week old DIO male C57BL/6 mice (˜45 g) were injected everyday subcutaneously with designated proteins (i.e., Compound 63) for 21 days. Body weight was measured daily and five animals were used for each treatment group. Fasting glucose was also monitored on designated days. Body weight and glucose were monitored for each individual animal. Day 1 and Day 21 are first day and last day of molecule dosage. % BW loss=100*(BW on Day n-BW on Day 1)/(BW on Day 1). Terminal blood was collected and EDTA-2k plasma was prepared and frozen in −80° C. for biomarker measurement. Livers were also collected and frozen in liquid nitrogen and stored in −80° C.
Data are indicated as mean values and standard error (SEM). Statistical analysis was performed by One-way ANOVA.

[4] = Body weight in DIO mice: fusion protein conjugate against GLP1 alone and FGF21 alone; type: in vivo, DIO male C57BL/6 mice; settings: both 10 nmol/kg and 30 nmol/kg, subcutaneously everyday for 21 days
Method: FIGS. 3A-3B show in vivo efficacy in DIO mice. To evaluate the body weight effect of the fusion proteins, 17 week old DIO mice (C57BL/6 mice on high fat diet for 13 weeks) were dosed everyday subcutaneously with different concentrations of compounds for 21 days. […] Data are expressed as mean values and standard error (SEM). n=5 for each treatment group.
17 week old DIO male C57BL/6 mice (˜45 g) were injected everyday subcutaneously with designated proteins (i.e., Compounds 63, 69 and 70) for 21 days. Body weight was measured daily and five animals were used for each treatment group. Day 1 and Day 21 are first day and last day of molecule dosage. % BW loss=100*(BW on Day n-BW on Day 1)/(BW on Day 1). Data are indicated as mean values and standard error (SEM).

Molecule | AUC compared to non-acylated fusion protein (Compound 3) ([1]; 30 nmol/kg subcutaneous) | Half-lives of double acylated compared to monoacylated Compounds 9 and 10 ([1]; 30 nmol/kg subcutaneous) | PK properties compared to Semaglutide ([1]; 30 nmol/kg subcutaneous) | AUClast [1] [µM·h] | Cmax [1] [nM] | Terminal t1/2 [1] [h] | Tmax [1] [h] | Body weight reduction at 30 nmol/kg (% reduction compared to vehicle)(Day11) [2] [%] | Body weight, glycemic control and lipid profile compared to 30 nmol/kg Semaglutide ([3]; 30 nmol/kg subcutaneously everyday for 21 days) | Dose dependence of efficacy ([3]; comparing 10 nmol/kg and 30 nmol/kg) | Body weight control compared to GLP1 alone (Compound 70) and FGF21 alone (Compound 69) [4]
Compound 19: GLP-1/FGF21 fusion polypeptide SEQ ID NO: 19 conjugated with Moiety A at 51K and 222K (conjugate, Moiety A conjugated at K51 and K222) HGEGTFTSDVSSYLEEQAAREFIAWLVRGGGGGGGSGGGGSGGGGSGGGGKHPIPDSSPLLQFGGQVRQRYLYTDDAQQTEAHLEIREDGTVGGAADQSPESLLQLRALRPGVIQILGVRTSRFLCQRPDGALYGSLHFDPEACSFRELLLEDGYNVYQSEAHGLPLHLPGQRSPHRDPAPRGPARFLPLPGLPPALPEPPGILAPQPPDVGSSDPLSLVGKSQGRSPSYES | larger AUC | significantly prolonged half-lives | better PK properties | 1.018 | 59.9 | 10.8 | 4 | 27.0 |  |  | 
Compound 63: GLP-1/FGF21 fusion polypeptide SEQ ID NO: 160 conjugated with Moiety B at 51C and 222C (conjugate, Moiety B conjugated at C51 and C222) HGEGTFTSDVSSYLEEQAAKEFIAWLVKGGGGGGGSGGGGSGGGGSGGGGCHPIPDSSPLLQFGGQVRQRYLYTDDAQQTEAHLEIREDGTVGGAADQSPESLLQLKALKPGVIQILGVKTSRFLCQRPDGALYGSLHFDPEACSFRELLLEDGYNVYQSEAHGLPLHLPGQKSPHRDPAPRGPARFLPLPGLPPALPEPPGILAPQPPDVGSSDPLSLVGCSQGRSPSYES | larger AUC |  |  | 1.2948 | 88.8 | 16.7 | 6.7 | 24.5 | better body weight and glycemic control and lipid profile | Dose dependent efficacy | better body weight control
